According to article PMC5962103, “SHOC1 is a ERCC4-(HhH)2-like protein, integral to the formation of crossover recombination intermediates during mammalian meiosis”:

Target: SHOC1 570-1111 (Homo sapiens, UniProt Q5VXU9 570-1111)
Experiment: EMSA; 2 mM Mg2+; 20 mM Tris-HCl pH 7.4, 1 mM DTT, 2 mM MgCl2, 100 mM NaCl, 10 uM 32P-DNA (so in the source), 20 ul, 10 min at 37 C; 8% PAGE in 1x TAE
Conditions: protein: recombinant, label: 5'-32P on #1

Sequence of SHOC1 570-1111 (Q5VXU9 570-1111): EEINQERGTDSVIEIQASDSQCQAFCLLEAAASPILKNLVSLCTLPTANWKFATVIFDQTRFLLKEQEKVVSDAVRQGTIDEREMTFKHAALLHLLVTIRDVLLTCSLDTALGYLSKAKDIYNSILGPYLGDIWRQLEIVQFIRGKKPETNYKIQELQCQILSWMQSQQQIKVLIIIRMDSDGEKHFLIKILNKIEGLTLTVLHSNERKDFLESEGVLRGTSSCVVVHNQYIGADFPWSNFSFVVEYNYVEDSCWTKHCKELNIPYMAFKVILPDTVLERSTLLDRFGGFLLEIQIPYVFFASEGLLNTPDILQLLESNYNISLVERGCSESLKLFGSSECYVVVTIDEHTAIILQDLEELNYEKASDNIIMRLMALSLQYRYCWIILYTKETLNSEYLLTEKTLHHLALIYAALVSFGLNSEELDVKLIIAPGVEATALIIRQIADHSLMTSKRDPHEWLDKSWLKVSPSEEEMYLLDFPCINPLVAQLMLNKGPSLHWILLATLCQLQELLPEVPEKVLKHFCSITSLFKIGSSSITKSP

B1: single-stranded DNA (#1) (ssDNA)
DNA: ACGCTGCCGAATTCTACCAGTGCCTTGCTAGGACATCTTTGCCCACCTGCAGGTTCACCC
binding result (single strand, 60 nt): binds

B2: D-loop (#1, #6, #7) (structured_DNA)
DNA 1: ACGCTGCCGAATTCTACCAGTGCCTTGCTAGGACATCTTTGCCCACCTGCAGGTTCACCC
DNA 2: GGGTGAACCTGCAGGTGGGCAGGAAGGCAAAATGCCGCAACTGGTAGAATTCGGCAGCGT
DNA 3: TTGCGGCATTTTGCCTTCCTCGGCCAGTGAATTCGAGCTC
binding result (D-loop 1:2 2:3, invading strand 3 pairs by its 5' 20 nt, 3' 20 nt tail): binds
